# Reference: publication PMC8904574 (2022)
# B1: δ-subunit of the F1 part of the Na+-F1FO-ATP synthase of Acetobacterium woodii, C-terminal His6 tag (protein)
# chain: MSLVASKYARALFDVAVDKDQLDEIFSDFKTATDLFSSEKKFMDLMLTPSLNTGEKKGILMRSLESLSNQYVKNYLMILMDKNRFEDIFDIYEAFRKLCNEHKNLVEARVLTVIPLDETLRIALEENLAKRFNKKVILENEIDKSILGGAVVYVGDQIIDGSIKNQLSQMKKQVNNLRLH
# Legend:
# [1] = biological target: α-subunit of the F1 part of the Na+-F1FO-ATP synthase of Acetobacterium woodii, N-terminal StrepI tag (Acetobacterium woodii (strain ATCC …, UniProt P50000)); test: LILBID-MS; tested with 2 mM ATP/2 mM MgCl2; δ binds only once the α3β3 hexameric head (α3β3γ/α3β3γε) is preformed
# Chain of α-subunit of the F1 part of the Na+-F1FO-ATP synthase of Acetobacterium woodii, N-terminal StrepI tag (Acetobacterium woodii (P50000 whole entry): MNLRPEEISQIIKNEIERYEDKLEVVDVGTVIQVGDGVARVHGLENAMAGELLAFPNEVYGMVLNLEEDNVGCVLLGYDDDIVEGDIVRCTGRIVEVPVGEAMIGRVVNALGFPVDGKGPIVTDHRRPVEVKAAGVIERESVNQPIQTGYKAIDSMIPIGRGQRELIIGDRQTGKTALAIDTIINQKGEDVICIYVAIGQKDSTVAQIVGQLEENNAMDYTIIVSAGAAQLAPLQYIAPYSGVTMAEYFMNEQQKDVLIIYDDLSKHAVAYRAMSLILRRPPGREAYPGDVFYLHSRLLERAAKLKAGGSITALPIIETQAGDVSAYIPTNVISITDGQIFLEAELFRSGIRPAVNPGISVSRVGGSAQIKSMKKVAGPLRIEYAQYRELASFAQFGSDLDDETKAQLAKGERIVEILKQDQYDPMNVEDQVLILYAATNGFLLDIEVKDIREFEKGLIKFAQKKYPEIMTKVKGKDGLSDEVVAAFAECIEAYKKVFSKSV
# [2] = biological target: β-subunit of the F1 part of the Na+-F1FO-ATP synthase of Acetobacterium woodii, N-terminal His6 tag (Acetobacterium woodii (strain ATCC …, UniProt P50002)); test: as above
# Chain of β-subunit of the F1 part of the Na+-F1FO-ATP synthase of Acetobacterium woodii, N-terminal His6 tag (Acetobacterium woodii (P50002 whole entry): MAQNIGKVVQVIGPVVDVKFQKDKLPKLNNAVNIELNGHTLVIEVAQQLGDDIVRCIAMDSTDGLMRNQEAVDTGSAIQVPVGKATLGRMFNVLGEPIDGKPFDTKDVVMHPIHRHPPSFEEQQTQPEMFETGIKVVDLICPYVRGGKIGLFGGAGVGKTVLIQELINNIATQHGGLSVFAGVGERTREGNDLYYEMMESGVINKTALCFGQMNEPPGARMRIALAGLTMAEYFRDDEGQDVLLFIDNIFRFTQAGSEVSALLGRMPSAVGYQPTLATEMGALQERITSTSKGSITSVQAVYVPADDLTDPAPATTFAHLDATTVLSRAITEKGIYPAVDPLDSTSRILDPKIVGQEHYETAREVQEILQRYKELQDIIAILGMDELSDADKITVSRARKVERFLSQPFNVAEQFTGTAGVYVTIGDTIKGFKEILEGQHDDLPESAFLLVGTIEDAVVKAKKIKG
binder,measurement,setting,value
B1,binding result,[1],no binding
same,binding result,[2],no binding
